Experimental data from article PMC9321280 (Nature Communications, 2022).

Target: T1, GFP-fused TcsH CROPs (residues 1832–2618), His-tagged (Paeniclostridium sordellii, UniProt M9ZTT7 1832-2618)
T1 construct: source: Escherichia coli (pET28a vector), purified as His-tagged protein
T1 sequence: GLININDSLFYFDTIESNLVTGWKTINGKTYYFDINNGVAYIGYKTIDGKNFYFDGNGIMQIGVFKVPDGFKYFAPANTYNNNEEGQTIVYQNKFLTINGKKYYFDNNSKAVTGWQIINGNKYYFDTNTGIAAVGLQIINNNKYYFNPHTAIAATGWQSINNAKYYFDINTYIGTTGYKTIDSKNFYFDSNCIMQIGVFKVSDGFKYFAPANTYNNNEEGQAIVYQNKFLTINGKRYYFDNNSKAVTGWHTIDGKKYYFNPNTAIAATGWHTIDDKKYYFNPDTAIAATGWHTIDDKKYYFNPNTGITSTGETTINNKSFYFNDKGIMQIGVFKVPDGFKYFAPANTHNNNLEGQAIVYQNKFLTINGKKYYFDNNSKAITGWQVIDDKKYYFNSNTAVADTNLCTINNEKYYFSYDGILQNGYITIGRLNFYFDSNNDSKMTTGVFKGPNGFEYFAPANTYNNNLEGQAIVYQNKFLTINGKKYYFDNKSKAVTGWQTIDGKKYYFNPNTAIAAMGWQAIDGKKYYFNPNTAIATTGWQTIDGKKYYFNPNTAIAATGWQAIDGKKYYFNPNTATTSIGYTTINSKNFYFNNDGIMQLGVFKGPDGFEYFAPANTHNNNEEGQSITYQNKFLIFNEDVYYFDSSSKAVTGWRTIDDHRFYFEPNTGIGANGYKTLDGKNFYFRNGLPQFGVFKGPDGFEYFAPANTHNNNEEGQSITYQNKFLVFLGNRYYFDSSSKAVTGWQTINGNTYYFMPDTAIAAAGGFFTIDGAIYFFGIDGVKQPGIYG
Test: BLI
Settings: both partners purified

B1: Fc-tagged TMPRSS2^106-492/[change] (ectodomain of human TMPRSS2 with [change]) (Fc fusion)
chain: WKFMGSKCSNSGIECDSSGTCINPSNWCDGVSHCPGGEDENRCVRLYGPNFILQVYSSQRKSWHPVCQDDWNENYGRAACRDMGYKNNFYSSQGIVDDSGSTSFMKLNTSAGNVDIYKKLYHSDACSSKAVVSLRCIACGVNLNSSRQSQIVGGESALPGAWPWQVSLHVQNVHVCGGSIITPEWIVTAAHCVEKPLNNPWHWTAFAGILRQSFMFYGAGYQVEKVISHPNYDSKTKNNDIALMKLQKPLTFNDLVKPVCLPNPGMMLQPEQLCWISGWGATEEKGKTSEVLNAAKVLLIETQRCNSRYVYDNLITPAMICAGFLQGNVDSCQGDSGGPLVTSKNNIWWLIGDTSWGSGCAKAYRPGVYGNVMVFTDWIYRQMRADG
Question: B1 was tested. Which Kd did it give?
Answer: The Kd was about 5.23 nM.
